Experimental data: article PMC12196458, “An Alternative Mechanism of Glutamate Dehydrogenase Inhibition by EGCG: Promotion of Protein Degradation” (Pharmaceuticals, 2025)

Biological target: the molecule itself
Assay: native gel or EMSA; native-PAGE of 2.5 mg/mL bovine GDH without EGCG or trypsin

B1: bovine glutamate dehydrogenase (enzyme)
chain: not shown
notes: Glutamate dehydrogenase 1, bovine, commercial preparation; Used as a substitute for wild-type human GDH in the gel experiments; also called Bovine GDH; Bo.GDH
stoichiometry N: 6
